Measurements: PMC6463007

Molecular target: E. coli GyrB (DNA gyrase subunit B) (E. coli) (UniProt P0AES6)

E. coli GyrA (DNA gyrase subunit A), sequence (P0AES4 whole entry): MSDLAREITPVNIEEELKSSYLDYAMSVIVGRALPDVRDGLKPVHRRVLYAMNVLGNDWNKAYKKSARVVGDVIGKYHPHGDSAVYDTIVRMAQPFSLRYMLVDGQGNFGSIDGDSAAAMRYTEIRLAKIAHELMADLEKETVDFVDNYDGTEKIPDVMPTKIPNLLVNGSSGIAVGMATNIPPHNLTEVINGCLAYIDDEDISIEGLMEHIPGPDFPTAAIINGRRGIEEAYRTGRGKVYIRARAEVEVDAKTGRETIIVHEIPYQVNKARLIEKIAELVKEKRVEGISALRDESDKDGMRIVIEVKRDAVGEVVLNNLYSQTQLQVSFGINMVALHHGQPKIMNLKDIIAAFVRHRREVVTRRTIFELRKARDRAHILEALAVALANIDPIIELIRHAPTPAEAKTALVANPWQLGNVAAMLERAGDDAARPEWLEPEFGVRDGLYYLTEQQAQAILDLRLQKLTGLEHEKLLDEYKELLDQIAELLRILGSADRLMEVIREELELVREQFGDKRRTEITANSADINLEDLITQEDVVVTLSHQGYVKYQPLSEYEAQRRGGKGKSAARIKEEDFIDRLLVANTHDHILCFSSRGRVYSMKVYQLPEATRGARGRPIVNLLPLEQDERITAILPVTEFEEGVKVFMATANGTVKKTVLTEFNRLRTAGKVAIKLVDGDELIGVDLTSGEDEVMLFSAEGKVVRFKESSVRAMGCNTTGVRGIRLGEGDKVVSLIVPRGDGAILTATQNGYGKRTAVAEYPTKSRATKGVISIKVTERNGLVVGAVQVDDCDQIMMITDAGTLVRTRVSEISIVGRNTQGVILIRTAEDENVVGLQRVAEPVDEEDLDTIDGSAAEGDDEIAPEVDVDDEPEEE

With “E. coli GyrA (DNA gyrase subunit A) (from UniProt P0AES4 1-875) (enzyme)” the supercoiling of relaxed pMP1000 plasmid by gyrase reconstituted from the two purified subunits; time course 5-80 s after ATP, 30 °C, chloroquine gel (supercoils/sec) was 5.
